Experimental findings from patent US20220298217A1 (FLAGSHIP PIONEERING INNOVATIONS VI, published 2022) are described below.

Residue numbers refer to the chain shown, from its start.

T1: Flag-PTHR1-YFP (parathyroid hormone receptor 1) expressed in transfected HEK293T cells (human, UniProt Q03431 27-593)
T1 sequence (looked up): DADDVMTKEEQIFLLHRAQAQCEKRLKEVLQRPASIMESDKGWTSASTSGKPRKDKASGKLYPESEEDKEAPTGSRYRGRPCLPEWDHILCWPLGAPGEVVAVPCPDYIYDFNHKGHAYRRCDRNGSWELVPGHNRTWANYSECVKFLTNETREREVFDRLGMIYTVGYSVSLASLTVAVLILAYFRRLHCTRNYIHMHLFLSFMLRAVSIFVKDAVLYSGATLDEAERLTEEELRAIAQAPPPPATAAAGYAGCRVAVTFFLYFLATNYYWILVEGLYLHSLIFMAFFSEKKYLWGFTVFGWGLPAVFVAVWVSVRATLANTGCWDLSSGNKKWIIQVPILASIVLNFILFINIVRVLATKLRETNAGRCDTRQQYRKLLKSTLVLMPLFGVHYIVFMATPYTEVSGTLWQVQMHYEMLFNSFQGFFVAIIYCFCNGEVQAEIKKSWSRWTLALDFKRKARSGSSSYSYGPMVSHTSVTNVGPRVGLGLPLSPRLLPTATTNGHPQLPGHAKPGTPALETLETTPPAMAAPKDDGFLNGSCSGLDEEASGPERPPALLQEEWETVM

T2: PTHR1 on CHO-K1/Ga15/PTHR1 cells (UniProt Q03431 27-593, limits assumed)
T2 sequence (looked up): T1 sequence (looked up)

B1: R2-1 (peptide)
peptide: GVAELQLMHDLAKIRAEYELREMLLRLLEEIF
B2: R2-51 (peptide)
peptide: GIAVITLMVLRALLELQEIGRKITLELLKEYI
B3: R2-13 (peptide)
peptide: GIAVITLMDLRAYLRAEYELREMLLRLLEEIF
B4: R2-52 (peptide)
peptide: GIAVITLMLLRAYLELLEELVKILHELLRRYH
B5: R2-29 (peptide)
peptide: AVAEIQLMHQRAKWKLELELKEKIRKLLEDLL
B6: R2-3 (peptide)
peptide: B1 peptide with L5I, L11I, A12P, K13V
B7: R2-9 (peptide)
peptide: B1 peptide with A3V, E4M, L7F, L11V
B8: R2-5 (peptide)
peptide: B1 peptide with E4L, L7I, M8V, L11F
B9: R2-10 (peptide)
peptide: B1 peptide with A3Y, E4A, L5I, L7A
B10: R2-1 (peptide)
peptide: B1 peptide
B11: R2-12 (peptide)
peptide: B1 peptide with L5I, H9V, A12D, K13I
B12: R2-4 (peptide)
peptide: B1 peptide with A3S, E4M, L7I, K13V
B13: R2-7 (peptide)
peptide: B1 peptide with D10F, L11R, K13L, I14L
B14: R2-2 (peptide)
peptide: B1 peptide with E4M, L5I, L7I, L11I
B15: R2-24 (peptide)
peptide: GLAALTIGLLRAKLRAEYELREMLLRLLEEIF
B16: R2-28 (peptide)
peptide: AVAEIQLMHQRAKWGLDLELAVKLQEILKDVL
B17: R2-27 (peptide)
peptide: AVAEIQLMHQRAKWKLDLELAVSLRKILEDVY
B18: R2-38 (peptide)
peptide: AVAEIQLMHQRAKWELLEELLKILLELLKEYI
B19: LA-PM-FL (R1-81) (peptide)
peptide: AVAEIQLMHQRAKWIQDARRRAFLHKLIAEIH
B20: R2-30 (peptide)
peptide: AVAEIQLMHQRAKWLEELKLKDDLRKILEDVY
B21: R2-11 (peptide)
peptide: GVAMLQILHDKAKVRAEYELREMLLRLLEEIF
B22: R2-6 (peptide)
peptide: AVATIQLMTDIAKIRAEYELREMLLRLLEEIF
B23: R2-18 (peptide)
peptide: SIIGEQLMLLRALLRAEYELREMLLRLLEEIF
B24: R2-32 (peptide)
peptide: AVAEIQLMHQRAKWKQELELEEKNKKILEDVY
B25: R2-14 (peptide)
peptide: B3 peptide with I5L, L7I, M8L, Y13K
B26: R2-17 (peptide)
peptide: B3 peptide with I5F, L7I, D9H, A12I
B27: R2-16 (peptide)
peptide: B3 peptide with G1L, A3L, I5E, T6Q
B28: R2-13 (peptide)
peptide: B3 peptide
B29: R2-8 (peptide)
peptide: SVMMIQVMHDLAKIRAEYELREMLLRLLEEIF
B30: R2-25 (peptide)
peptide: AVAEIQLMHQRAKWKLELELKVKLLEILKDVY
B31: R2-33 (peptide)
peptide: AVAEIQLMHQRAKWLNELRLKEEMRKILEDVY
B32: R2-22 (peptide)
peptide: GIAVITIMIDYAKLRAEYELREMLLRLLEEIF
B33: R2-26 (peptide)
peptide: AVAEIQLMHQRAKWGLELELKEKLRKILEDVY
B34: R2-31 (peptide)
peptide: AVAEIQLMHQRAKWGLDLELRARLREILRDVY
B35: R2-41 (peptide)
peptide: AVAEIQLMHQRAKWEIQEIGIKITLDLLQTLK
B36: R2-19 (peptide)
peptide: PIPVKDIMDLRAYLRAEYELREMLLRLLEEIF
B37: R2-21 (peptide)
peptide: B36 peptide with P1L, P3L, D6K, M8I

The target in one experiment is T1, Flag-PTHR1-YFP (parathyroid hormone …). Put plainly: cell-based or functional assay.
Take B1: the “arrestin 1, plate 7: -log10EC50” value was -15 -log10EC50; the “arrestin 1, plate 7: Emax” value amounted to 6.35; the “arrestin 2, plate 8: -log10EC50” value is -9.21 -log10EC50; the “arrestin 2, plate 8: Emax” value was 6.41.
On to B2, for which the “arrestin 1, plate 25: -log10EC50” value was -4.53 -log10EC50; the “arrestin 1, plate 25: Emax” value was found to be 12.5; the “arrestin 2, plate 26: -log10EC50” value was -13.8 -log10EC50; the “arrestin 2, plate 26: Emax” value worked out at 6.47.
As to B3, the “arrestin 1, plate 15: -log10EC50” value is -8.79 -log10EC50; the “arrestin 1, plate 15: Emax” value came to 6.38; the “arrestin 2, plate 16: -log10EC50” value is -14 -log10EC50; the “arrestin 2, plate 16: Emax” value is 6.59.
On to B4, for which the “arrestin 1, plate 25: -log10EC50” value is -9.83 -log10EC50; the “arrestin 1, plate 25: Emax” value came to 6.37; the “arrestin 2, plate 26: Emax” value was found to be 6.48.

A further experiment deals with T2, PTHR1 on CHO-K1/Ga15/PTHR1 cells. Put plainly: cell-based or functional assay.
B5: the “cAMP accumulation (HTRF): -log10EC50” value is -7.22 -log10EC50 (as headed) and the “cAMP accumulation (HTRF): Emax” value was found to be 97.5%.
For B6, the “cAMP accumulation (HTRF): -log10EC50” value was -4.93 -log10EC50 (as headed) and the “cAMP accumulation (HTRF): Emax” value worked out at 260%.
For B7, the “cAMP accumulation (HTRF): -log10EC50” value was 110 -log10EC50 (as headed) and the “cAMP accumulation (HTRF): Emax” value came out at 665%.
Turning to B8, the “cAMP accumulation (HTRF): Emax” value was 1580%.
For the molecule B9, the “cAMP accumulation (HTRF): -log10EC50” value is -4.49 -log10EC50 (as headed) and the “cAMP accumulation (HTRF): Emax” value was 1680%.
For B10, the “cAMP accumulation (HTRF): -log10EC50” value was -7.02 -log10EC50 (as headed) and the “cAMP accumulation (HTRF): Emax” value turned out to be 102%.
With B11, the “cAMP accumulation (HTRF): -log10EC50” value is -3.86 -log10EC50 (as headed) and the “cAMP accumulation (HTRF): Emax” value worked out at 154%.
With B12, the “cAMP accumulation (HTRF): -log10EC50” value was -5.87 -log10EC50 (as headed) and the “cAMP accumulation (HTRF): Emax” value came out at 10.6%.
As for B13, the “cAMP accumulation (HTRF): -log10EC50” value is -1.58 -log10EC50 (as headed) and the “cAMP accumulation (HTRF): Emax” value is 823%.
Regarding B14, the “cAMP accumulation (HTRF): -log10EC50” value is -6.73 -log10EC50 (as headed) and the “cAMP accumulation (HTRF): Emax” value stood at 101%.
For B15, the “cAMP accumulation (HTRF): -log10EC50” value was -10.4 -log10EC50 (as headed) and the “cAMP accumulation (HTRF): Emax” value turned out to be 81.4%.
In the same order, the values of B16 are -7.03 -log10EC50 (as headed) and 99.2%.
Turning to B17, the “cAMP accumulation (HTRF): -log10EC50” value was -7.91 -log10EC50 (as headed) and the “cAMP accumulation (HTRF): Emax” value amounted to 93.3%.
For the molecule B18, the “cAMP accumulation (HTRF): -log10EC50” value was -6.91 -log10EC50 (as headed) and the “cAMP accumulation (HTRF): Emax” value is 99.1%.
Take B19: the “cAMP accumulation (HTRF): -log10EC50” value was -7.88 -log10EC50 (as headed) and the “cAMP accumulation (HTRF): Emax” value came out at 95%.
In the same order, the values of B20 are -7.1 -log10EC50 (as headed) and 97.2%.
In the case of B21, the “cAMP accumulation (HTRF): -log10EC50” value was -5.7 -log10EC50 (as headed) and the “cAMP accumulation (HTRF): Emax” value is 60.8%.
For B22, the “cAMP accumulation (HTRF): -log10EC50” value was 3.88 -log10EC50 (as headed) and the “cAMP accumulation (HTRF): Emax” value amounted to 294%.
Turning to B23, the “cAMP accumulation (HTRF): -log10EC50” value is -2.23 -log10EC50 (as headed) and the “cAMP accumulation (HTRF): Emax” value is 36.6%.
Regarding B24, the “cAMP accumulation (HTRF): -log10EC50” value was -6.51 -log10EC50 (as headed) and the “cAMP accumulation (HTRF): Emax” value was determined as 101%.
In the same order, the values of B25 are -11.3 -log10EC50 (as headed) and 117%.
Take B26: the “cAMP accumulation (HTRF): -log10EC50” value was -3.35 -log10EC50 (as headed) and the “cAMP accumulation (HTRF): Emax” value turned out to be 39.7%.
For the molecule B27, the “cAMP accumulation (HTRF): -log10EC50” value was -4.71 -log10EC50 (as headed) and the “cAMP accumulation (HTRF): Emax” value was 48.7%.
As for B28, the “cAMP accumulation (HTRF): -log10EC50” value is -5.31 -log10EC50 (as headed) and the “cAMP accumulation (HTRF): Emax” value worked out at 116%.
On to B29, for which the “cAMP accumulation (HTRF): -log10EC50” value was -7.5 -log10EC50 (as headed) and the “cAMP accumulation (HTRF): Emax” value came to 19.9%.
In the same order, the values of B30 are -7.89 -log10EC50 (as headed) and 96%.
As to B31, the “cAMP accumulation (HTRF): -log10EC50” value was -7.1 -log10EC50 (as headed) and the “cAMP accumulation (HTRF): Emax” value came out at 96.9%.
Turning to B32, the “cAMP accumulation (HTRF): -log10EC50” value is -10.1 -log10EC50 (as headed) and the “cAMP accumulation (HTRF): Emax” value worked out at 17.6%.
B33: the “cAMP accumulation (HTRF): -log10EC50” value is -7.07 -log10EC50 (as headed) and the “cAMP accumulation (HTRF): Emax” value was found to be 96.8%.
Regarding B34, the “cAMP accumulation (HTRF): -log10EC50” value is -14 -log10EC50 (as headed) and the “cAMP accumulation (HTRF): Emax” value came to 104%.
As to B35, the “cAMP accumulation (HTRF): -log10EC50” value is -10.3 -log10EC50 (as headed) and the “cAMP accumulation (HTRF): Emax” value turned out to be 98.2%.
In the same order, the values of B36 are -4.69 -log10EC50 (as headed) and 324%.
Turning to B37, the “cAMP accumulation (HTRF): -log10EC50” value is -4.67 -log10EC50 (as headed) and the “cAMP accumulation (HTRF): Emax” value was determined as 47%.
